Laboratory results reported in the NTF2 design screens of Basanta et al. (2020).

assay: protease stability score; higher = more stable; yeast display proteolysis, trypsin and chymotrypsin;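 also: log10 excess protease needed over predicted unfolded state with 0 meaning unfolded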

Going from “DREDNEQVKKILETNDFHRLAEQADKDAKAVVGEKRYHGREHVREALLRLQKQADHLEIDSMDTSGDKVVMRAKLKINGKTMDVTFDVVVHNGRLQHFEMSATTEDDERIQRTANS” to “DREDQEEVARHLVEVLERGDPQKMLELADPNVRAEVGDKRYHGREDLKSIMDELSRQVDRIQVVHLDVKGNTVRVTVKNRVNGVVVDLVIIFHFRNGKLRDVTIDARNEEQLKKREG”, the protease stability score rises from 0.743 to 0.754.

First: DREDTAREAAHEAIKIWKTGDPEKLKELFDPNVKVKIGDRTVHGREELVRQIRHEREQVDHLSFDLEDYKMDGDQMHVVVRFTANRNGRRTEDKQVYNASFHNGQFRIHEMNKK
Second: DREEAKKIRKNWETNNWDHFAHQADENVRVRVGDKKYHGHHKLLEIMHQIEKRIDHARFDHIDLDGEKLTVDFQMVVNGKKVRYVMFIKVSNGRIKEVNIQFTSEEEERRAQEALR
The protease stability score of the first is lower: -0.356 for the first, 0.732 for the second.

First: DREEAKKVAEKAAKYFQNWNVEQLLKLIPDGGKYRIADEERHGPDVIKEVVEKQQRMGLEVEVKEVHAEGDTVHTVLDYRLGDTTATVHIQAKVQGGRIDEVQVDIPEEAQKMLKQG
Second: DREEHASQLFRDMQEVYHNNDPSKFKHLVDENVTRDVGDKTVHGQDEMAREMEKEARRVDKVRFDVRDVKSNNGRIKVRFVVTHNENGRERSSDVTVRFQVSNGRLVIESQTET
The protease stability score of the first is higher: 0.401 for the first, -0.206 for the second.

First: DREEKVREALETLQKAFRTGDPRLFVEQLDPNVRIEVGDKTVHGREQASEWAKRMRDKFDHFEVKIHDMSVQGDKFSVKVSLRQDVNGTDVQRDNHYTIVFHNGRVHVQNINNK
Second: DREEQKKVAKHMDDLVRTGDPREATDLIDPNAKADVGDKQYHGREQLHKLFKEQHERADHADLKSFDAHNGKVEVNVIIQVNGRRHRVIYHADADNGRVKFVSVRSS
The protease stability score of the first is higher: 0.644 for the first, -0.164 for the second.

Compared with “DREEQSEFAKKFLEVVMHGDPKKIRKLADPNAKADVGDKKYHGRESMAKWAHDFRKEVDHIEFKDLKVDGETARLDVVYDVNGHKERQVVVVTAHNGRVKHMQVEEG”, “DREERARQLLRELLKALETGDEDTAANQADPNVRVSVGDRTYHGREQYRTFLRKVAERVDHLEVRVDRVTQDNGQIHMDMTVRHEKNGRTHRKEFVIQIDVQGDKNRFVQMRHK” is higher in protease stability score: -0.18 for the first, -0.163 for the second.

Compared with “DREERHRAEQWLNAIKTNNPDDVVEQADKDVRLEVGEERVSGRSELRKEVDKDRKRWDFEIDHVDIKVHNGRIHMTVDVVVRHNGKPDKQEQEYTIEFSNGRARTIVARQNK”, “DREERKKIAQTILKIFETGDHKKFKRQIDPNVEVVVGDRTYKGRTQATKAFNEIQEKVDEVDVKTVHYKGDHAIVDAVLVINGRRVTVYFHLTIHNGRVKSISMQFRDEEDERKFRG” is higher in protease stability score: -0.229 for the first, 0.367 for the second.

Compared with “DREEVKKIKRLIETNDWRTLAQQADENVEIVYGNKTIHGREQALKFWDILRKHADHIEIKRFDNQGDKVRVNMTVEVNGRHITMNMNIVFHNGRLKEVEIRVTDEKQLKEIEDLVQ”, “DREEVRQVDQWMKNQQRNNPDELVKLADPNVEFRIGDKTVHGMRRYADDVRRKREHIRLEFKHMKIEDQNGRVILRAKAQREHNGKPETFTMQITFEAHNGRIKKAVITTQK” is lower in protease stability score: 1.59 for the first, 0.044 for the second.

First: DREIQHQVTELLEARRRGDEKRLQQNFDPNARMRIGDKEWHGMDTAAEEIAHEQREMRFDVKSIEVRVSGNKVSVDNRYVLEHDGRPHEFVQHDDVEMSNGKFKTAEVKHDG
Second: DREKEAHELIEHFVRMLETGDEEKFKEMMDKDAKLHVGDKDVHGRDDVDRHLAQEYKQYDHVHFRVKDVKVRGDTIEAQVEVQFDHNGKTDTRTYRFVMRVDNGDVKFQSVSNS
The protease stability score of the first is lower: -0.408 for the first, 1.45 for the second.

First: DREKQSEISTMMQKGDPQHLVDLADENAHVEIGNKRVHGRNQIKEYADRFHERVDHYSVRSIEIEGDTVTVTAYFVVNGQNIEWTMQMQNHNGKVKRIRVRFTNEELEKQLDKALS
Second: DRELNQLFRDYVHALKTGDEDELRKQADPNVRIEIGDKEWHGMEKIATEQKKRHDEIRVQIDVKEVSVHNGRVEAELEVVDQQNGRPEKRKVTVTAEYENGKLQHQRYQSDG
The protease stability score of the first is higher: 0.846 for the first, -0.442 for the second.

First: DRELRQNLHEFWKQQETGNPDELRKMVDPNARIVIGDKTYSGMDNAAQRMAESNQELSVDIKRLDLQASNGRVTIKLDAVKNHNGQPSRKTVTQTIRIHNGRIKHISMREDG
Second: DREMLKDVKRLLEVINKGNEDEMRKMVDPNAKFVIGDKEITGREEFAKQMKRHKDEIRIDIKVKHLTAKGNRATVRATATRDHNGQPQSFKVTMRVTFSNGKVKKVHYDYTK
The protease stability score of the first is lower: -0.448 for the first, 0.065 for the second.

First: DREQAERLIRIMENERTGDPDKVVEMVDPNAKFKVGNTTYKGREELRKEVETRQKKARFEMSIQDYSVHGDTASIRYTLVINVNGQPHESTFNLEARFHNGKVRELHVKFDEQRMRDIQS
Second: DREQQHVAREFLEAHNEGDEDRMVQLADPNARVHVGDKEVHGREELKKWVRDVEKKMNVQIDVRSIHAHNGKIRITARISFKINGEPRSDRIRFDFRAHNGTLKDFHLKVSEEQRKKKQQ
The protease stability score of the first is higher: 0.49 for the first, 0.075 for the second.

Going from “DRERLADELRRRLEKVMTTGDPTELDKLMDPNARILYGDQKFHGREHVKEFAKTLNDQYDHVTIRLVSYDIKNGEIHIVVDVVFRHNGQTRTKRINFVARVHGDKVKIESINIP” to “DRERQKKNLKDFVDALTKGDPDQVVKQFDKDARVRVGDKQVEGRDQIREFAKEWSKHVDRFRITEMRVHNGRLDIQAEQHHNGRKRRIQVEVNWHNGQIKNMQWTHG”, the protease stability score rises from 1.3 to 1.4.

Going from “DRERRHEFATEVVENLKQGDWKRLVEQADKDVTADIGDTKYKGRETFSKWAQQFVRRVDRVEIVDMRLDGDEVRINMDVKHNGQTRRSVFIARWHNGRIKHFRIETG” to “DREVIKLAKRMITALQKGDHQKFVNLLDPNVRIDVGDKEVHGQEEAQERLREETRQIRVDNHVKTIDDNNGRANFKMSVNAQVNGKPVHYEVNAVVHAHNGKARRLHIKVPEEDKRHLDR”, the protease stability score falls from 1.62 to 0.034.

First: DREVLKEFLKQFHEGNFHEVARMADPNAEVEVGDKTVEGREHLITLHKHIHDKADHASIHRVEIHNGRINVELTVNFNGTNVVYRFTLEAENGKLKNINYRARDSDQKRILKRLWG
Second: DREVQEHIEQFWKVYRTGDEKRIVELLDPNVKFDYGDRTVEGRETVREEVKKHHDEQRVDFKSVDVKVTNGRIDVKVRAKYHHNGTPDEQKFTASASLNNGRVKHMSRQTSK
The protease stability score of the first is higher: 0.091 for the first, -0.181 for the second.

First: DRHDMHKLEEIWKAIQTGDKDRVKELADPNAEFNVGDKTYHGMDQYITDLKKKRDQMRVHLELQSLDVKNGRARAVAVLRNEHNGTPDQRKFKVNATFRNGRLQHLKLQELS
Second: DRHERKKVAKDFNEALETNDHEQLMEQMDPNARIKYGDKHYHGREDLRRFWKKLVDSVDHITVDKMQVRGEEVVVLAKAESNGRNETFRLVMEFHNGRIKFVRKDTP
The protease stability score of the first is lower: 0.021 for the first, 0.132 for the second.

Compared with “DRKAEKLLEDLLDARRTNDEKKLQDLMDPNVKVDVGNKHYEGRERNAKSYAQEYKQMRLEIRVKSIHNNGNHVIQTFDADVRINGKPIRFRAQMMLHFHNGRVQHVYLRLDPSVEQHRRD”, “DRKAKEFAETLYDIFQRGNFENFLELIDKNVTVDVGDRTLHGRQAHEFAKEFQKEQLKVEVDDWHVDNQGEKVRITMTFVLHVNGRPQKQRQEQRFHLHNGRIKSLQVKTDE” is lower in protease stability score: 0.218 for the first, -0.156 for the second.

Going from “DRKLEEVFRKWLKAQKEGNPEVARKNADKDAKIVIGDTQIHGRDEMAEKVRHRKKHLQVDIKIKRMQIQGDKIKIKFEVVENHNGKPEKYKATAFARASDGNFKEMQVNKTG” to “DRKTEKDAIERARTALQDGDPQQAFDLFDENAKIVVGDQEYHGREQVSTAVEEFRKEIDHFEVERVSVHNGHATIDARVEHNGRSDDVTFHVTVHNGQVREAQVRTK”, the protease stability score falls from 0.12 to -0.213.

First: DRNANKLATKVFTAYNRNNPKQLVENLDPNAELSYGDKEYHGRENMKKMVEDIKREMQLSIHIDHVDVHNGQARVEFVQENEHNGQPSRKHYVAHFDHENGRVKKLVFKESG
Second: DRNHVKEIAKEILKAMETNDEKRMSELMDKNVRLVYGDTEVHGRERVLTTIKHELESIDHVNFHDMSVDGDKIHVVYHVQKNGDRRQVEVRYVISNGKIQEVQINTR
The protease stability score of the first is lower: -0.106 for the first, 0.623 for the second.
